Source: IntAct's records for PubMed 21152186

B1: Matrix metalloproteinase-28 (Homo sapiens), Q9H239 (parent)
chain: MVARVGLLLRALQLLLWGHLDAQPAERGGQELRKEAEAFLEKYGYLNEQVPKAPTSTRFSDAIRAFQWVSQLPVSGVLDRATLRQMTRPRCGVTDTNSYAAWAERISDLFARHRTKMRRKKRFAKQGNKWYKQHLSYRLVNWPEHLPEPAVRGAVRAAFQLWSNVSALEFWEAPATGPADIRLTFFQGDHNDGLGNAFDGPGGALAHAFLPRRGEAHFDQDERWSLSRRRGRNLFVVLAHEIGHTLGLTHSPAPRALMAPYYKRLGRDALLSWDDVLAVQSLYGKPLGGSVAVQLPGKLFTDFETWDSYSPQGRRPETQGPKYCHSSFDAITVDRQQQLYIFKGSHFWEVAADGNVSEPRPLQERWVGLPPNIEAAAVSLNDGDFYFFKGGRCWRFRGPKPVWGLPQLCRAGGLPRHPDAALFFPPLRRLILFKGARYYVLARGGLQVEPYYPRSLQDWGGIPEEVSGALPRPDGSIIFFRDDRYWRLDQAKLQATTSGRWATELPWMGCWHANSGSALF

Variants of: B1
Conditions: with furin_human FURIN

| Variant | effect of a mutation on the interaction |
| --- | --- |
| MVARVGLLLRALQLLLWGHLDAQPAERGGQELRKEAEAFLEKYGAANEQVPKAPTSTRFSDAIRAFQWVSQLPVSGVLDRATLRQMTRPRCGVTDTNSYAAWAERISDLFARHRTKMRRKKRFAKQGNKWYKQHLSYRLVNWPEHLPEPAVRGAVRAAFQLWSNVSALEFWEAPATGPADIRLTFFQGDHNDGLGNAFDGPGGALAHAFLPRRGEAHFDQDERWSLSRRRGRNLFVVLAHEIGHTLGLTHSPAPRALMAPYYKRLGRDALLSWDDVLAVQSLYGKPLGGSVAVQLPGKLFTDFETWDSYSPQGRRPETQGPKYCHSSFDAITVDRQQQLYIFKGSHFWEVAADGNVSEPRPLQERWVGLPPNIEAAAVSLNDGDFYFFKGGRCWRFRGPKPVWGLPQLCRAGGLPRHPDAALFFPPLRRLILFKGARYYVLARGGLQVEPYYPRSLQDWGGIPEEVSGALPRPDGSIIFFRDDRYWRLDQAKLQATTSGRWATELPWMGCWHANSGSALF [Y45A;L46A] | disrupting interaction strength |
| MVARVGLLLRALQLLLWGHLDAQPAERGGQELRKEAEAFLEKAAYLNEQVPKAPTSTRFSDAIRAFQWVSQLPVSGVLDRATLRQMTRPRCGVTDTNSYAAWAERISDLFARHRTKMRRKKRFAKQGNKWYKQHLSYRLVNWPEHLPEPAVRGAVRAAFQLWSNVSALEFWEAPATGPADIRLTFFQGDHNDGLGNAFDGPGGALAHAFLPRRGEAHFDQDERWSLSRRRGRNLFVVLAHEIGHTLGLTHSPAPRALMAPYYKRLGRDALLSWDDVLAVQSLYGKPLGGSVAVQLPGKLFTDFETWDSYSPQGRRPETQGPKYCHSSFDAITVDRQQQLYIFKGSHFWEVAADGNVSEPRPLQERWVGLPPNIEAAAVSLNDGDFYFFKGGRCWRFRGPKPVWGLPQLCRAGGLPRHPDAALFFPPLRRLILFKGARYYVLARGGLQVEPYYPRSLQDWGGIPEEVSGALPRPDGSIIFFRDDRYWRLDQAKLQATTSGRWATELPWMGCWHANSGSALF [Y43A;G44A] | with no effect |
| MVARVGLLLRALQLLLWGHLDAQPAERGGQELRKEAEAFLEKYGYLNEQVPKAPTSTRFSDAIRAFQWVSQLPVSGVLDRATLRQMTRPRCGVTDTNSYAAWAERISDLFARHRTKMRAAKRFAKQGNKWYKQHLSYRLVNWPEHLPEPAVRGAVRAAFQLWSNVSALEFWEAPATGPADIRLTFFQGDHNDGLGNAFDGPGGALAHAFLPRRGEAHFDQDERWSLSRRRGRNLFVVLAHEIGHTLGLTHSPAPRALMAPYYKRLGRDALLSWDDVLAVQSLYGKPLGGSVAVQLPGKLFTDFETWDSYSPQGRRPETQGPKYCHSSFDAITVDRQQQLYIFKGSHFWEVAADGNVSEPRPLQERWVGLPPNIEAAAVSLNDGDFYFFKGGRCWRFRGPKPVWGLPQLCRAGGLPRHPDAALFFPPLRRLILFKGARYYVLARGGLQVEPYYPRSLQDWGGIPEEVSGALPRPDGSIIFFRDDRYWRLDQAKLQATTSGRWATELPWMGCWHANSGSALF [R119A;K120A] | with no effect |
| MVARVGLLLRALQLLLWGHLDAQPAERGGQELRKEAEAFLEKYGYLNEQVPKAPTSTRFSDAIRAFQWVSQLPVSGVLDRATLRQMTRPRCGVTDTNSYAAWAERISDLFARHRTKMRRKKRFAKQGNKWYKQHLSYRLVNWPEHLPEPAVRGAVRAAFQLWSNVSALEFWEAPATGPADIRLTFFQGDHNDGLGNAFDGPGGALAHAFLPRRGEAHFDQDERWSLSRRRGRNLFVVLAHAIGHTLGLTHSPAPRALMAPYYKRLGRDALLSWDDVLAVQSLYGKPLGGSVAVQLPGKLFTDFETWDSYSPQGRRPETQGPKYCHSSFDAITVDRQQQLYIFKGSHFWEVAADGNVSEPRPLQERWVGLPPNIEAAAVSLNDGDFYFFKGGRCWRFRGPKPVWGLPQLCRAGGLPRHPDAALFFPPLRRLILFKGARYYVLARGGLQVEPYYPRSLQDWGGIPEEVSGALPRPDGSIIFFRDDRYWRLDQAKLQATTSGRWATELPWMGCWHANSGSALF [E241A] | with no effect |
